The target in the test is human IR-B overexpressed on NIH 3T3 mouse fibroblast cells (human) (UniProt P06213). Description: cell-based or functional assay.

sCon-Ins G1 (ligand) gave a fold greater efficiency of Akt phosphorylation than the PTM-free analogue of 8 fold and a log [EC50 (nM)], Akt phosphorylation (pAkt Ser473) of 0.9 log nM.

The substance Con-Ins G1 (ligand) yielded a fold less active than hIns, Akt phosphorylation assay of 10 fold and a log [EC50 (nM)], Akt phosphorylation (pAkt Ser473) of 0.78 log nM.

Values taken from patent US20220340636A1.
